Measured values published in patent publication US12269859B2, “Synthetic immune receptors and methods of use thereof” (Angeles Therapeutics, Inc., priority 2016, dated 2025).

B1: IL-7: exogenous recombinant human IL-7 (protein, UniProt P13232 26-177, looked up)
Interleukin-7: DCDIEGKDGKQYESVLMVSIDQLLDSMKEIGSNCLNNEFNFFKRHICDANKEGMFLFRAARKLRQFLKMNSTGDFDLHLLKVSEGTTILLNCTGQVKGRKPAALGEAQPTKSLEENKSLKEQKKLNDLCFLKRLLQEIKTCWNKILMGTKEH
B2: 010716-G03 (protein)
chain: MALPVTALLLPLALLLHAARPDIQMTQSFSSLSASVGDRVTITCRASQDISNYLNWYQQKPGKAPKLLIYYTSRLHSGVPSRFSGSGSGTDYTLTISSLQPEDFATYFCQQGNTLPWTFGGGTKLEIKRLEGKPIPNPLLGLDSTGSGEDLKNVFPPEVAVFEPSKAEIAHTQKATLVCLATGFYPDHVELSWWVNGKEVHSGVCTDPQPLKEQPALNDSRYCLSSRLRVSATFWQNPRNHFRCQVQFYGLSENDEWTQDRAKPVTQIVSAEAWGRADCGITSASYHQGVLSATILYEILLGKATLYAVLVSALVLMAMVKRKDSRGRAKRSGSGATNFSLLKQAGDVEENPGPTSMDWIWRILFLVGAATGAHSFEEVQLVQSGGGLVQSGGSLRLSCRASGYTFTRYWMLWVRQRPGKGLEWVAEINPRNDRTNYNEKFKTRFTISVDRSKNTLYLQMDSLRAEDTAVYFCALGGGYAMDYWGQGTLVTVSSTREQKLISEEDGSGIQNPDPAVYQLRDSKSSDKSVCLFTDFDSQTNVSQSKDSDVYITDKCVLDMRSMDFKSNSAVAWSNKSDFACANAFNNSIIPEDTFFPSSDVPCDVKLVEKSFETDTNLNFQNLSVIGFRILLLKVAGFNLLMTLRLWSSRAKRSGSGVKQTLNFDLLKLAGDVESNPGPSRGHMTEYKPTVRLATRDDVPRAVRTLAAAFADYPATRHTVDPDRHIERVTELQELFLTRVGLDIGKVWVADDGAAVAVWTTPESVEAGAVFAEIGPRMAELSGSRLAAQQQMEGLLAPHRPKEPAWFLATVGVSPDHQGKGLGSAVVLPGVEAAERAGVPAFLETSAPRNLPFYERLGFTVTADVEVPEGPRTWCMTRKPGA
modifications: Synthetic Immune Receptor (SIR)

How the values were obtained:
RAJI cells = assay: RAJI xenograft model of lymphoma in NSG mice (survival); format: in vivo; conditions: 200 ng/mouse intraperitoneal three times, with SIR-T cells
Description: In vivo efficacy of SIR targeting CD19. […] SIR constructs and Gluc-PAC-G07 control construct encoding non-secretory form of Guassia Luciferase. Approximately half the cells were selected with puromycin while the other half was expanded without puromycin selection. NSG mice (Jackson Lab) were sub-lethally irradiated at a dose of 175 cGy. Approximately 24 hours post irradiation (day 2), mice were injected with 2.5×10^4 RAJI cells via tail-vein. […] Control mice (n=5) received no T cells or uninfected T cells. Mice were given human IL2 (400 IU intraperitoneally) on alternate days till the death of all mice in control group.
Approximately half the cells were selected with puromycin while the other half was expanded without puromycin selection. NSG mice (Jackson Lab) were sub-lethally irradiated at a dose of 175 cGy. Approximately 24 hours post irradiation (day 2), mice were injected with 2.5×10^4 RAJI cells via tail-vein. […] Control mice (n=5) received no T cells or uninfected T cells. Mice were given human IL2 (400 IU intraperitoneally) on alternate days till the death of all mice in control group.
SIR construct. NSG mice (Jackson Lab) were sub-lethally irradiated at a dose of 175 cGy. Approximately 24 hours post irradiation (day 2), mice were injected with 2.5×10^4 RAJI cells via tail-vein. […] SIR encoding lentivirus. […]

SKOV-3 cells = assay: SKOV-3 intraperitoneal xenograft in NSG mice (survival); format: in vivo; conditions: NSG mice (n = 3), 1×10^6 SKOV-3 cells intraperitoneally, 5 million T cells intravenously
Description: Human peripheral blood T cells isolated using CD3 magnetic beads were infected with lentiviruses expressing the indicated SIR constructs targeting Folate receptor 1 (FR1), L1CAM and Epcam1. On day 1, the NSG mice were sub-lethally irradiated at a dose of 175 cGy. 24 hours post irradiation (day 2), mice were injected with 1×10^6 SKOV-3 cells intraperitoneally. On day 3, the mice were treated intravenously with 5 million indicated CAR-T cells. Beginning On day 4, mice were injected with human IL-2 i.p. at a dose of 400 IU/mice every alternate day after the injection CAR-T cells till the death of all mice in control group.

[1] = tested on: target antigen-expressing cell line; assay: Jurkat NFAT-GFP assay, coculture with target cell lines expressing the respective target antigen (summary Table 10A); format: cell-based, human; parameters: key: The signs +/−, +, 2+ etc. after the name of the cell lines indicate the relative degree of positivity on the Jurkat-NFAT-GFP assay as measured by the % GFP positive cells; +: relative degree of positivity on the Jurkat-NFAT-GFP assay as measured by the % GFP positive cells; 2+: relative degree of positivity on the Jurkat-NFAT-GFP assay as measured by the % GFP positive cells
Procedure, shortened: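 Readout is % GFP+ cells by FACS, graded +/− to 2+ relative to parental reporter cells. Jurkat-NFAT-GFP cells stably transduced with SIR constructs (puromycin-selected) were mixed with target-antigen-expressing cell lines at roughly 1:2 effector:target and cocultured ~4–18 h.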

Row | Molecule | tumor rejection and survival (in words) (RAJI cells) | Median Survival (SKOV-3 cells) [days] | NFAT-GFP ASSAY Positive Cell lines ([1]; coculture with A549 cells) | NFAT-GFP ASSAY Positive Cell lines ([1]; coculture with LoVo cells)
1 | B1 | reject their tumor and survive longer | – | – | –
2 | B2 | – | 63 | LoVo (+), A549 (+), | LoVo (+), A549 (+),
